Measurements: article PMC7610366 (Nature chemical biology, 2020)

Legend:
[1] = target: 6xHis-tagged RcsF (E. coli) (UniProt P69411); experiment: BLI
[2] = target: Untagged BamA (E. coli), P0A940; experiment: BLI; settings: remark: other sources report otherwise
BamABCDE holocomplex = BamABCDE holocomplex (E. coli, UniProt P0A940;P77774;P0A903;P0AC02;P0A937, lipid moiety | lipid moiety | lipid moiety | lipid moiety); experiment: native gel or EMSA
BamAB sub-complex = BamAB sub-complex (E. coli, UniProt P0A940;P77774, lipid moiety); experiment: native gel or EMSA
Sequence of BamAB sub-complex (P77774 20-392, one chain of several): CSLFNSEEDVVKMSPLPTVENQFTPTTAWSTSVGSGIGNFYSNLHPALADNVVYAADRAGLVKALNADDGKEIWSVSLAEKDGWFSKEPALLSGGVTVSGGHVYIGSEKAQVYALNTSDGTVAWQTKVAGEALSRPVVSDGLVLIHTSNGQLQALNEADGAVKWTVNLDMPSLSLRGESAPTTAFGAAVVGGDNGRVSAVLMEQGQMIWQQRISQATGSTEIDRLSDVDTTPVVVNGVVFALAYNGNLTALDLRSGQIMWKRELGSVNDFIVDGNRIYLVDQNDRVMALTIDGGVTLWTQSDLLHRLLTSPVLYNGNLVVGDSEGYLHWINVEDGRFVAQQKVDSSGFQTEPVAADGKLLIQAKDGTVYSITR

Sequence of BamABCDE holocomplex (P77774 20-392, chain 2 of 4): as the sequence (P77774 20-392, one chain of several) above
Sequence of BamABCDE holocomplex (P0A903 25-344, chain 3 of 4): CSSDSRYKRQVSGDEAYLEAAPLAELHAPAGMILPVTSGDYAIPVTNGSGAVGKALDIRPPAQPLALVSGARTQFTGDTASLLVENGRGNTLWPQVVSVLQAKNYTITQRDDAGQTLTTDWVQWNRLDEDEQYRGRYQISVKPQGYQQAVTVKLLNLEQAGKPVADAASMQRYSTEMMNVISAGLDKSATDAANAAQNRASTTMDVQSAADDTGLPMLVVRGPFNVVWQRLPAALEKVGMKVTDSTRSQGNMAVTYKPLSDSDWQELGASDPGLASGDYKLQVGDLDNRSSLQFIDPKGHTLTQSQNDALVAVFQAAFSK
Sequence of BamABCDE holocomplex (P0AC02 20-245, chain 4 of 4): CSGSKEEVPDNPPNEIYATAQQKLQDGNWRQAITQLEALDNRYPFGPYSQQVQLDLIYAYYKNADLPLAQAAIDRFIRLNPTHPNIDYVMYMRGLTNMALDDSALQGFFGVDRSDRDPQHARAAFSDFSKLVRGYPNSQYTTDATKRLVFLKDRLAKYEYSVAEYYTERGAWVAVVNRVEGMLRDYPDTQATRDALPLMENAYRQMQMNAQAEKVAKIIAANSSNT
Sequence of BamABCDE holocomplex (P0A937 20-113, chain 5 of 4): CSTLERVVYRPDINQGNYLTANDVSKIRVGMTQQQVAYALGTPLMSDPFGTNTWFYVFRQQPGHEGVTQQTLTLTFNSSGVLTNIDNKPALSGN

## Untagged BamA (from UniProt P0A940 21-810) (natural protein; other documents disagree on this pair)
[1]
  Kd: 420 nM

B1: 6xHis-tagged RcsF, P69411 16-134 (natural protein)
chain: CSMLSRSPVEPVQSTAPQPKAEPAKPKAPRATPVRIYTNAEELVGKPFRDLGEVSGDSCQASNQDSPPSIPTARKRMQINASKMKANAVLLHSCEVTSGTPGCYRQAVCIGSALNITAK
modifications: here or on the partner: biotin (EZ-Link NHS-PEG4-biotin) where immobilised on streptavidin tips
[2]
  Kd: 350 nM

B2: RcsF (natural protein)
chain: CSMLSRSPVEPVQSTAPQPKAEPAKPKAPRATPVRIYTNAEELVGKPFRDLGEVSGDSCQASNQDSPPSIPTARKRMQINASKMKANAVLLHSCEVTSGTPGCYRQAVCIGSALNITAK
modifications: lipid anchor
BamABCDE holocomplex
  binding result: binds
BamAB sub-complex
  binding result: binds
